Patent US20110091994A1, “Methods for Screening Compounds for Treating and/or Preventing an Hepatitis C Virus Infection” (priority 2008, published 2011)
Where two headings read alike, the source gives them in different places.

Legend:
[1] = test system: HCV RNA replication; experiment: HCV RNA replication under bile acids / FXR ligands; format: cell-based, Hepatitis C virus
[2] = target: T1, GST-tagged viral proteins (Hepatitis C virus genotype 1b, UniProt Q9WMX2); experiment: Validation by co-affinity purification (CoAP); format: binding, HCV genotype 1b, isolate con1; design: key: +: IMAP validation; −: not validated; NA: non assayable due to default of protein expression or to cellular protein directly interacting with GST
T1 construct: expressed in transfected cells; host or cells: HEK-293T
Excerpt: C. Validation of Y2H interactions by co-affinity purification assay. Nine co-AP positive assays are shown, representing: NS5A-SORBS2 (1), NS3-CALCOCO2 (2), NS5A-BIN1 (3), NS5A-MOBK1B (4), NS5A-EFEMP1 (5), NS3-PSMB9 and NS5A-PSMB9 (6), NS5A-PPPIRI3L (7), NS3-RASAL2 (8). After pull-down with GST tagged viral baits (+) or with negative control GST alone (−), cellular preys are identified with anti-Flag antibody. Anti-GST antibody identifies either GST alone or GST-tagged viral baits. Expression of cellular preys in cell lysate is controlled by anti-Flag (bottom panel). […]
A random pool of 59 IMAP Y2H interactions was chosen for CoAP assays. Cellular ORFs (interacting domains found in Y2H screens) were cloned by recombinational cloning from a pool of human cDNA library or the MGC cDNA plasmids using KOD polymerase (Toyobo) into pDONR207 (Invitrogen). After validation by sequencing, these ORFs were transferred to pCi-neo-3xFLAG gateway-converted, and HCV ORFs were transferred into pDEST27 (GST fusion in N-term). HEK-293T cells were then co-transfected (JetPei, Polyplus) by each pair of plasmid encoding interacting proteins. Controls are GST alone against 3xFLAG-tagged preys. Two days after transfection, cells were harvested and lysed (0.5% NP-40, 20 mM Tris-HCl (pH 8.0), 180 mM NaCl, 1 mM EDTA, and complete protease inhibitor cocktail). Cell lysates were cleared by centrifugation for 20 min at 13,000 rpm at 4° C. and soluble protein complexes were purified using Glutathione Sepharose 4B beads (GE Healthcare). Beads were then washed extensively four times with lysis buffer and proteins were separated on SDS-PAGE and transferred to nitrocellulose membrane. GST-tagged viral proteins and 3xFLAG-tagged cellular proteins were detected using standard immunoblotting techniques using anti-GST (Covance) and anti-FLAG M2 (Sigma) monoclonal antibodies (21).

[3] = test system: HCV ORFs (Gal4-DB fusions); format: binding, HCV genotype 1b, isolate con1; settings: human protein listed by gene symbol; the value names the HCV protein it interacts with
[4] = target: T2, HCV ORFs (Gal4-DB fusions) (Hepatitis C virus genotype 1b, UniProt Q9WMX2); format: binding, HCV genotype 1b, isolate con1; settings: human protein as prey
T2 construct: expressed in transfected cells; host or cells: Saccharomyces cerevisiae MAV203 (IMAP1) / AH109 (IMAP2)

[5] = target: T3, HCV proteins (Hepatitis C virus genotype 1b, UniProt Q9WMX2); experiment: Validation by Y2H pairwise matrices; format: binding;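 note: yeast two-hybrid pairwise tests of interactions first found in Y2H screens of HCV bait proteins against human cDNA libraries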
T3 construct: expressed in transfected cells

[6] = validation of interaction with HCV protein NS3
[7] = interaction with HCV protein NS5A
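Throughout, for IMAP Y2H IMAP1 (number of IST): yeast two-hybrid screens using HCV genotype 1b proteins fused to Gal4-DB as baits against prey cDNA libraries from human spleen and foetal brain, IMAP1 via transformation and IMAP2 via mating.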
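Throughout, for IMAP Y2H IMAP2 (number of IST): yeast two-hybrid screens using HCV genotype 1b proteins fused to Gal4-DB as baits against prey cDNA libraries from human spleen and foetal brain, IMAP1 via transformation and IMAP2 via mating.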
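Throughout, for Interaction with viral protein: yeast two-hybrid screens using HCV genotype 1b proteins fused to Gal4-DB as baits against prey cDNA libraries from human spleen and foetal brain, IMAP1 via transformation and IMAP2 via mating.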

Molecule	CoAP [2, 6]	Interaction with viral protein [3]	IMAP Y2H IMAP1 (number of IST) ([4]; HCV protein NS3 as bait)	IMAP Y2H IMAP2 (number of IST) ([4]; HCV protein NS3 as bait)	Y2H matrices [5, 6]	also measured
C/C=C1\C(=O)C[C@H]2[C@@H]3CCC4=CC(=O)CC[C@]4(C)[C@H]3CC[C@]12C [guggulsterone]						effect on the up-regulation of HCV replication induced by BAs ([1]; FXR antagonism, in presence of BAs): blocked the up-regulation induced by BAs; inhibition of basal level of HCV replication ([1]; guggulsterone alone): tenfold
ACTN2	−	NS3	10	6	+	
CALCOCO2	+	NS3	5	2	+	
KPNA1	+	NS3		8		
PPP1R13L		NS5A				CoAP [2, 7]: +; IMAP Y2H IMAP2 (number of IST) ([4]; HCV protein NS5A as bait): 2
SMURF2	+	NS3 and NS2		4		
UBQLN1		NS4A				IMAP Y2H IMAP1 (number of IST) ([4]; HCV protein NS4A as bait): 2; IMAP Y2H IMAP1 (number of IST) ([4]; HCV protein p7 as bait): 3; Y2H matrices ([5]; interaction with HCV protein p7): +; Y2H matrices ([5]; validation of interaction with HCV protein NS4A): +
VCAN		NS3	1		+	
VIM		NS3	32		+	
VWF		NS3 and CORE	26		+	IMAP Y2H IMAP1 (number of IST) ([4]; HCV protein CORE as bait): 2; Y2H matrices ([5]; validation of interaction with HCV protein CORE): +
ZNF646						CoAP [2, 7]: −; IMAP Y2H IMAP2 (number of IST) ([4]; HCV protein NS5A as bait): 2
deoxycholate						up-regulation of HCV RNA replication [1]: more than tenfold
